Data reported in patent publication US20070293656A1, “COLLAGEN BINDING PEPTIDES” (Epix Pharmaceuticals, Inc., priority 2005, published 2007).
“And” between values parts separate entries of the source, which are not always exact repeats. Equal entries are not always repeated. Where two headings read alike, the source gives them in different places. Each block holds one molecule with its values, some of them ahead of it. Bridge positions count the residues as written; N and C are the ends. Square brackets hold non-standard residues; d marks the D form. Primed or numbered codes have the meaning given here. Side chains are listed from the residue outwards. Ends that are not written are not given here. * marks the point of attachment. Bip = N[C@@H](Cc1ccc(-c2ccccc2)cc1)C(=O)O; Gd^T = not defined here; Gd^T″ = GdDTPA-thiourea; Cbz = O=C(OCc1ccccc1)*; Dap = NC[C@H](N)C(=O)O

Experiments:
[1] = tested on: perfused Langendorff rat heart; assay: Washout kinetics from perfused Langendorff rat heart; conditions: 10 minutes perfusion with buffer after infusion
[2] = biological target: T1, rat type I collagen (Rattus norvegicus, UniProt P02454+P02466); assay: MR phantom imaging of collagen gel samples at 4.7 T; conditions: centrifuged samples 4 and 8, 4.7 T
T1 construct: Rat collagen (acid soluble, type I, rat tail); purchased Upstate USA, Inc 08-115; host or cells: rat tail
T1 sequence (P02454 152-1207 limits assumed): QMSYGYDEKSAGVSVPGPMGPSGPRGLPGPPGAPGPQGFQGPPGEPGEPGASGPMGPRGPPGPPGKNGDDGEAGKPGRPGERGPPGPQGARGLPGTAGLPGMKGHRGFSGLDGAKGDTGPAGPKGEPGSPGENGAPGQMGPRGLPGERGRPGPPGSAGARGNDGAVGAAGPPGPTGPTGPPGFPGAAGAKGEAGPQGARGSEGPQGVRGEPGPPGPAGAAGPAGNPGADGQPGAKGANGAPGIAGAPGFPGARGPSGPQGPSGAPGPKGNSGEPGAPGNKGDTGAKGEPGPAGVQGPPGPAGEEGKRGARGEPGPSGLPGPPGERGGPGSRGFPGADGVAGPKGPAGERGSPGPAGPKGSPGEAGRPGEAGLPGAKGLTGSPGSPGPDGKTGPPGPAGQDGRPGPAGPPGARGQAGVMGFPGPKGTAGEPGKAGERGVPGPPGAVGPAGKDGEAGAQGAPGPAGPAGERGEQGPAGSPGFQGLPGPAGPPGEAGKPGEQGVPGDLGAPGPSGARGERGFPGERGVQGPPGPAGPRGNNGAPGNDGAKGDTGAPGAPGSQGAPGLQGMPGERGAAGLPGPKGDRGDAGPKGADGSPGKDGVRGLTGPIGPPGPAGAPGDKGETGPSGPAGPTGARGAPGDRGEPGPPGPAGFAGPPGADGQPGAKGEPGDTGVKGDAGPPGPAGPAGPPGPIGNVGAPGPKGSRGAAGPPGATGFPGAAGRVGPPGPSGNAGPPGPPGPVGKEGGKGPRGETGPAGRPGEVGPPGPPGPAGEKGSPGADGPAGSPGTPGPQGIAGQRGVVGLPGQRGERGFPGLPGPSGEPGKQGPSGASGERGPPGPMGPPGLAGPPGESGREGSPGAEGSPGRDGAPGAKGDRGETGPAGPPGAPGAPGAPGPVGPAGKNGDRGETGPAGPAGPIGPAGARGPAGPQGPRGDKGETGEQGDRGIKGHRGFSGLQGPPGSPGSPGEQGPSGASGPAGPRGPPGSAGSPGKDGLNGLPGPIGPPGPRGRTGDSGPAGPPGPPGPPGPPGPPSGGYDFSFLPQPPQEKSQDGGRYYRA
T1 sequence (P02466 86-1125 limits assumed): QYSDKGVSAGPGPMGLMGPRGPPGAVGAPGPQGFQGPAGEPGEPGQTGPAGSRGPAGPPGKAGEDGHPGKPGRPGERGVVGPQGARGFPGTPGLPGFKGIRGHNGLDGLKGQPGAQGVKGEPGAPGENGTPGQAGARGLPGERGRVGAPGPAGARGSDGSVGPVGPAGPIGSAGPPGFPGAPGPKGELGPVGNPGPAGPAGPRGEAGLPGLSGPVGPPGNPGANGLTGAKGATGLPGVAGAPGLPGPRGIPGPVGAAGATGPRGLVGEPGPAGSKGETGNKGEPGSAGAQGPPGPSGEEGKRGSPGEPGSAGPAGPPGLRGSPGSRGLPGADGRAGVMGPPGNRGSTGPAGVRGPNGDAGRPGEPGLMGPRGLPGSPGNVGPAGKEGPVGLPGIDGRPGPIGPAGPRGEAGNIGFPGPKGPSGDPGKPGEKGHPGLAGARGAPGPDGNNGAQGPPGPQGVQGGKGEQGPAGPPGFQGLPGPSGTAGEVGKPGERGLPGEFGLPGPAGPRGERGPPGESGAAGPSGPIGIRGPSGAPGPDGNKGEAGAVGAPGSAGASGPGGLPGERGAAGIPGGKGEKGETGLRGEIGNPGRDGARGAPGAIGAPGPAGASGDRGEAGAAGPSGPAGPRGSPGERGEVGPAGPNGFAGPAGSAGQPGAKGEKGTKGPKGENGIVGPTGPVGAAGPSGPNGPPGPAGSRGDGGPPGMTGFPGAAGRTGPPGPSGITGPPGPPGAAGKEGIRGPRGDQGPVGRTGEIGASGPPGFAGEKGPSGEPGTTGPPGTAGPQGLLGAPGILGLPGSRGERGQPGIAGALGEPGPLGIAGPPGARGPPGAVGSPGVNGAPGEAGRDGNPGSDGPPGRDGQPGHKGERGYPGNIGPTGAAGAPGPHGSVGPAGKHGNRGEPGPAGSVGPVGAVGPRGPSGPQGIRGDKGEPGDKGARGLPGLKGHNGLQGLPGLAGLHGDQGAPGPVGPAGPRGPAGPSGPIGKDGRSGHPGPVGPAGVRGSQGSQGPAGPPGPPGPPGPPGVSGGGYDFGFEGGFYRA
Method: Samples: • 1. […] Sample prepared as sample 2, but centrifuged to separate insoluble rat collagen gel • 5. Sample prepared as sample 3, but centrifuged to separate insoluble human collagen gel • 6. 27 μM GdDTPA solution in PBS, pH 7.4 • 7. 27 μM GdDTPA in a solution of 5.0 μM rat type I collagen in 10 mM phosphate buffer, pH 5 incubated at 37° C. overnight to form a gel • 8. Sample prepared as in sample 7, but centrifuged to separate insoluble rat collagen gel • 9. Homogeneous gel of 5 μM rat collagen • 10. Homogeneous gel of 7.5 μM human collagen
Samples for imaging were placed in glass tubes that were in turn placed in tubes containing water. Images were acquired at 4.7 T on a Bruker Biospec Imager using a Multi-Slice Multi-Echo Method with variable Relaxation Delay (MSMEVTR) experiment. The spin echo time and the relaxation delay were set to TE=11.2 ms and TR=500 ms, respectively with a flip angle of 30°. Images were acquired of sample 2, sample 4, sample 7, and sample 8. […] Sample 7 and 8 show uniform signal intensity.

[3] = tested on: C57BL/6 mouse; conditions: 25 μmol/kg i.v. bolus
[4] = tested on: C57BL/6 mouse; conditions: 7-day old infarction, 25 μmol/kg i.v. bolus
[5] = 10 μmol/kg
[6] = tested on: C57BL/6 mice
[7] = tested on: perfused Langendorff rat heart; assay: Equilibrium binding to perfused Langendorff rat heart
Method: After deep anesthesia with pentobarbital (80 mg/kg ip), the chest cavity of a male Sprague Dawley rat (300 g) was opened, retracted and the heart was removed immediately and placed in an ice-cold normal Krebs-Henseleit (K-H) solution (NaCl, 118 mM; KCl, 4.7 mM; CaCl2, 2.5 mM; MgSO4, 1.2 mM; KH2PO4, 1.2 mM; NaHCO3, 25 mM; glucose, 5.5 mM). A K-H buffer filled 20 Gauge needle was inserted into the apex of the heart penetrating into the bottom of the chamber. This was attached to a pressure transducer used to record and monitor heart function. Perfusion pressure (˜60 mmHg) was monitored using a second transducer. The heart was perfused at a constant flow rate of 10-12 mL/min with 37° C. […]
Two peptide test articles, a high collagen binding peptide (SEQ ID NO: 144) and a low collagen binding peptide (SEQ ID NO: 173), are compared to GdDTPA. […] The amount of radioactivity added to the buffer solution was 1-5 μCi.
The heart was perfused for a period of 10 minutes and the perfusion solution was recycled through the heart. […] The heart was then weighed and the radioactivity in the heart measured with a Packard Cobra 5003 Gamma Scintillation counter. An aliquot of the K-H buffer was also weighed and counted. […]
The dual peptide gadolinium tetramer (Compound ID 803) was compared to GdDTPA. […] The amount of radioactivity added to the buffer solution was 1-5 μCi.

[8] = Biodistribution analysis in rats (heart and blood, radiotracer); assay type: in vivo, Sprague-Dawley rats; conditions: rat, 1 and 5 min post injection
Method: Concentration estimates were decay corrected. Studies were performed at least in duplicate.

[9] = biological target: T2, human collagen type I (acid soluble, extracted from placenta, Sigma C7774) (human, UniProt P02452 162-1218; P08123 80-1119); assay: dried collagen assay
T2 construct: gelled and dried as a fibril film in the assay; also called dried human collagen; h-Collagen
T2 sequence (P02452 162-1218 limits assumed, chain 1 of 2): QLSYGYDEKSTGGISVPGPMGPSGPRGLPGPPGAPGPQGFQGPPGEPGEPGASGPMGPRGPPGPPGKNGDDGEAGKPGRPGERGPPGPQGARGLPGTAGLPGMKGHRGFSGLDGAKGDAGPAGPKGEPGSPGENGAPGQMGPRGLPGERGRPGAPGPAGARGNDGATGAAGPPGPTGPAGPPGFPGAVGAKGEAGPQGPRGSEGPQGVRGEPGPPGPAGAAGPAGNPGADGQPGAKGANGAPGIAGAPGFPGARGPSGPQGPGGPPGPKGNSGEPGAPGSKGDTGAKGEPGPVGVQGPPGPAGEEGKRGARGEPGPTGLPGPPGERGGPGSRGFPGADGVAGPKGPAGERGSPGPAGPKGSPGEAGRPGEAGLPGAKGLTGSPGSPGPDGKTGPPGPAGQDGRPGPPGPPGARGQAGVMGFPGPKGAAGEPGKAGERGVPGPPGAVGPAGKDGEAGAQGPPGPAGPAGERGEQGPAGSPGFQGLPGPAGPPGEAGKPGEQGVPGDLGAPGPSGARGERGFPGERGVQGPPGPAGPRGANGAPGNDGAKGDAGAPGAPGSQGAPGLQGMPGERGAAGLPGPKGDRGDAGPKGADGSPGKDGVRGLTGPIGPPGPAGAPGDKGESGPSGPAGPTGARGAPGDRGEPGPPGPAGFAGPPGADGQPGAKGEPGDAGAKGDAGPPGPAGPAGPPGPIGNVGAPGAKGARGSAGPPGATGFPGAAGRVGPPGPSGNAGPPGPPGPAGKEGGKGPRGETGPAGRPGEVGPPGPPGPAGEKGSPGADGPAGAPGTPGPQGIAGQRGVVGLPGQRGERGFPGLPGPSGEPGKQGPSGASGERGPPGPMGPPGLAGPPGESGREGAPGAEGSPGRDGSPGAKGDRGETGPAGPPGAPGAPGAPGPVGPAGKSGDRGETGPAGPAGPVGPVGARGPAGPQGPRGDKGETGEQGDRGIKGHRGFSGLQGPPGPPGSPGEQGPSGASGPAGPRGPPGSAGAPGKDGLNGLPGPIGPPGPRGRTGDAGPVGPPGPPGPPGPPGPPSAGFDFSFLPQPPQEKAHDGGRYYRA
T2 sequence (P08123 80-1119 limits assumed, chain 2 of 2): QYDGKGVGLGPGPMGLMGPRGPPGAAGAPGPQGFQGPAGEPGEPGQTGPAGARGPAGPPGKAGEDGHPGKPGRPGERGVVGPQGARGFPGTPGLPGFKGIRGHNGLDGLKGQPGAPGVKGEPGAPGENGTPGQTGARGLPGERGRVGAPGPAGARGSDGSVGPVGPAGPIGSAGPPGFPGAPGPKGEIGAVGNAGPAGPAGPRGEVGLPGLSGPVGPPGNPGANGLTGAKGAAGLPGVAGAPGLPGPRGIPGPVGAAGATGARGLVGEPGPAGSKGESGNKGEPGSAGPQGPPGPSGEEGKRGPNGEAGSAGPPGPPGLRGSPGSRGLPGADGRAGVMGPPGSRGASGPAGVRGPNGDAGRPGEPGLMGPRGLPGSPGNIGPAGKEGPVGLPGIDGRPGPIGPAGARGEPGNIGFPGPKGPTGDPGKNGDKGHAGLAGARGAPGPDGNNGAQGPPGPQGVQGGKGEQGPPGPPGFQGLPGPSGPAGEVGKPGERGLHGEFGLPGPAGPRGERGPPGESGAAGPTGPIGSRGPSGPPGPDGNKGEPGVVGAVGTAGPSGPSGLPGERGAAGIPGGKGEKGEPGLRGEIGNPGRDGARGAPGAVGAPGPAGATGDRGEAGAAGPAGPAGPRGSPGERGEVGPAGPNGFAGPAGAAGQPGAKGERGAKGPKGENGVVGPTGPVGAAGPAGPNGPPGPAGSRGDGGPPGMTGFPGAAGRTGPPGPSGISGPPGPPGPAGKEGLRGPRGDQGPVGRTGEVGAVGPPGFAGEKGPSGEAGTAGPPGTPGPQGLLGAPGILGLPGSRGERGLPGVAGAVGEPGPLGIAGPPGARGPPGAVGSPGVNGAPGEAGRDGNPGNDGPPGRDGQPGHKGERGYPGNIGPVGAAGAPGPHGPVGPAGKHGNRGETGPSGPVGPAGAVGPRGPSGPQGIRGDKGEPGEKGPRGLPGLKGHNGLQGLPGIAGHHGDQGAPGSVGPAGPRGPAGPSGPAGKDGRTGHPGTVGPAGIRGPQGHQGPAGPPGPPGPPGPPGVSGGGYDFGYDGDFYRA

[10] = biological target: T2, human collagen type I (acid soluble, …); assay: dried collagen assay; remark: listed apart in the source
[11] = biological target: T3, rat collagen (acid soluble, type I, rat tail, Upstate 08-115) (rat, UniProt P02454 152-1207; P02466 86-1125); assay: dried collagen assay
T3 construct: also called dried rat collagen; insoluble rat collagen
T3 sequence (P02454 152-1207 limits assumed, chain 1 of 2): as the sequence (P02454 152-1207 limits assumed) above
T3 sequence (P02466 86-1125 limits assumed, chain 2 of 2): as the sequence (P02466 86-1125 limits assumed) above

[12] = biological target: T3, rat collagen (acid soluble, type I, rat …); assay: dried collagen assay; remark: listed apart in the source
[13] = biological target: T2, human collagen type I (acid soluble, …); assay: dried collagen assay; remark: listed apart in the source
Method: (§1) An additional 90 μL is reserved in a HPLC glass vial as a measure of the total concentration.

[14] = biological target: T3, rat collagen (acid soluble, type I, rat …); assay: dried collagen assay; remark: listed apart in the source
Method: as §1

[15] = 40 day old infarcts, 50 min post-injection, two animals, listed as Compound ID NO. 800

specific heart uptake ([7]; Buffer 3.0 μM): no specific uptake
Molecule: Q W T C S G D E Y T w H C N Y E (GQWTCSGDEYT[dW]HCNYE; disulfide 5-14 (inferred)) [SEQ ID NO: 173, -G- Linker at the N-terminus]

heart uptake compared with GdDTPA ([7]; perfused 10 minutes, recycled): about 10 times
Molecule: Q W T C S G D A Y T W H C N Y E (GQWTCSGDAYTWHCNYE; disulfide 5-14 (inferred)) [SEQ ID NO: 144, -G- Linker at the N-terminus]
heart uptake relative to GdDTPA control [8]: positive uptake in the heart relative to the GdDTPA negative control
percent of compound present at 0 minutes post infusion that remains at 10 minutes [1]: 68%

% bound [10]: 71%
% bound [11]: 71%
Molecule: GQWTCSGDEYTWHCNYE (disulfide 5-14 (inferred)) [SEQ ID NO: 122]

% bound [13]: 10%
% bound [14]: 2%
Molecule: YSACYQAGCYIY (disulfide 4-9 (inferred)) [SEQ ID NO: 110]

% bound [13]: 21%
% bound [14]: 37%
Molecule: YSACYQAGCWIW (disulfide 4-9 (inferred)) [SEQ ID NO: 109]

% bound [10]: 59%
% bound [11]: 72%
Molecule: GQWTCSGDEYTWHCNY (disulfide 5-14 (inferred)) [SEQ ID NO: 123]

Continued, molecule first:

Molecule: O=C([O-])CN(CCN(CC(=O)[O-])CC(=O)O)CCN(CC(=O)[O-])CC(=O)O.[Gd+3] [GdDTPA, gadolinium diethylenetriaminepentaacetate]
percent of compound present at 0 minutes post infusion that remains at 10 minutes [1]: 0.5% and 2.2%
signal of centrifuged collagen gel relative to supernatant [2]: no increased concentration of GdDTPA in the gel relative to the supernatant

Molecule: CC(C)C[C@H](NC(=O)[C@@H]1CSSC[C@H](NC(=O)[C@H](Cc2c[nH]cn2)NC(=O)[C@H](Cc2c[nH]c3ccccc23)NC(=O)[C@H](CCCCNC(=O)CNC(=S)Nc2ccc(C[C@@H](CN(CCN(CC(=O)O)CC(=O)O)CC(=O)O)N(CC(=O)O)CC(=O)O)cc2)NC(=O)CNC(=S)Nc2ccc(C[C@@H](CN(CCN(CC(=O)O)CC(=O)O)CC(=O)O)N(CC(=O)O)CC(=O)O)cc2)C(=O)N[C@@H]([C@@H](C)O)C(=O)N[C@@H]([C@@H](C)O)C(=O)N[C@@H](CCCCNC(=S)Nc2ccc(C[C@@H](CN(CCN(CC(=O)O)CC(=O)O)CC(=O)O)N(CC(=O)O)CC(=O)O)cc2)C(=O)N[C@@H](Cc2ccccc2)C(=O)N2CCC[C@H]2C(=O)N[C@@H](Cc2c[nH]cn2)C(=O)N[C@@H](Cc2c[nH]cn2)C(=O)N[C@@H](Cc2ccc(O)cc2)C(=O)N1)C(=O)N[C@@H](Cc1ccc(O)cc1)C(=O)N[C@@H](Cc1ccc(-c2ccccc2)cc1)C(N)=O [Compound ID 800]
persistence of myocardial enhancement [3]: at least 1 hour
enhancement of the myocardium ([3]; 4.7-T): positive enhancement of the myocardium
enhancement of myocardium and infarcted zones [4]: positive enhancement of the myocardium and hyperenhancement of infarcted zones
persistence of enhancement [4]: at least 1 hour
retention of gadolinium in the heart [5]: ≥ 30 min
Gadolinium concentration in the heart ([5]; 1 minute post injection): 23.9±7.8
MR enhancement of infarct zone versus viable myocardium ([6]; 7 day, 40 day or 210 day infarcts, 25 μmol/kg intravenous): infarct zone as hyperintense relative to the normal, viable myocardium
gadolinium concentration, blood [6, 15]: 27.8 nmol Gd/g and 14.6 nmol Gd/g
tissue gadolinium concentration, scar [6, 15]: 137 nmol Gd/g and 122 nmol Gd/g

B1: Comp ID 951 (peptide)
peptide: {Gd^T″}-GK([Gly-Gd^T″])WHCTTYFPHH[Bip]CLYG
modifications: disulfide 5-14; not fully specified (C-terminus); printed as Gd^T-G-K(G.Gd^T)-WHCTTYFPHH-Bip-CLYG
% bound [9]: 45%

B2: Comp ID 939 (peptide)
peptide: Cbz-GQWHCT[Dap](Gd^T″)RFPHHYCLYG
modifications: disulfide 5-14; not fully specified (C-terminus); printed as cbz-GQWHCT-Dpr(Gd^T)-RFPHHYCLYG
% bound [9]: 4%
% bound [12]: 5%

Molecule: GQWHCTTSFPHHYCLYG (not fully specified; Gd^T-GQWHCTTSFPHHYCLYG) [Comp ID 869]
% bound [9]: 46%
% bound [12]: 37%

B3: Comp ID 900 (peptide)
peptide: {Gd^T}-GQWHCT[dR]RFPHHYCLYG
modifications: disulfide 5-14 (inferred); not fully specified (C-terminus); printed as Gd^T-GQWHCTrRFPHHYCLYG; reading uncertain
% bound [9]: 4%

B4: Comp ID 898 (peptide)
peptide: {Gd^T}-GQWHCT[dS]RFPHHYCLYG
modifications: disulfide 5-14 (inferred); not fully specified (C-terminus); printed as Gd^T-GQWHCTsRFPHHYCLYG; reading uncertain
% bound [9]: 5%

Molecule: YHACYQAGCWIY (disulfide 4-9 (inferred)) [SEQ ID NO: 106]
% bound [13]: 9%
% bound [14]: 24%
